Like-named read-outs stand apart in the source and are kept apart here. Non-standard residues stand in square brackets, D forms with d. Residues, ends and D or L forms follow the SMILES beside them. No end group written: not given here. pS = N[C@@H](COP(=O)(O)O)C(=O)O
What was measured:
[1] = biological target: 14-3-3 proteins (all seven isoforms); assay: Fluorescence polarization titration, statements across the 14-3-3 isoforms; type: binding, human
Protocol: TASK-1 or TASK-3 C-terminal fluorescent peptides (10 nM), comprising the last 15 amino acids of the respective C-termini, were titrated with concentrations of the 14-3-3 proteins ranging from 1 nM to 120 µM (Fig. 2), and the equilibrium dissociation constants of 14-3-3 proteins were calculated for TASK-1 phosphorylated at S393 (TASK-1 pS393; the conserved serine residue of the mode III 14-3-3-binding motif) and for TASK-3 phosphorylated at S373 (TASK-3 pS373) (Table 1). They ranged from 7.5±0.14 µM (mean±s.e.m.; 14-3-3β) to 49.4±2 µM (14-3-3τ) for TASK-1, whereas dissociation constants for TASK-3 ranged from 110±10 nM (14-3-3η) to 3.6±0.44 µM (14-3-3σ). The latter value matches the result determined previously by [Anders et al. (2013]) for the TASK-3 C-terminal hexapeptide using isothermal titration calorimetry. The dissociation constants of the seven mammalian 14-3-3 isoforms for the same TASK C-terminal peptide differed up to sevenfold for TASK-1-derived peptides and up to 30-fold for TASK-3-derived peptides. […] No binding of any 14-3-3 isoform to any TASK C-terminal peptide was observed when the peptides were not phosphorylated.
Fig. 2. […] Fluorescence polarization titration of fluorescein-labeled TASK-1 pS393 (black), TASK-3 pS373 (red) and TASK-3 pS373 ΔV374 (blue) peptide (10 nM) with increasing concentrations of the indicated 14-3-3 isoform. Fluorescein was excited at 485 nm, and fluorescence polarization was monitored at 535 nm. A monophasic fit was used to fit the data (Goodness-of-fit: R^2 from 0.76 to 0.98). No binding was detectable for the unphosphorylated TASK C-terminal peptides. The assay was repeated at least six times for each data point with two batches of independently purified 14-3-3 proteins. Error bars depict s.e.m. (A) 14-3-3β, (B) 14-3-3γ, (C) 14-3-3ε, (D) 14-3-3ζ, (E) 14-3-3η and (F) 14-3-3τ.
[Mant et al. (2011)] report that both serine residues present in the TASK-1 C-terminus can be phosphorylated in vitro by the recombinant catalytic subunit of PKA. […] Next, using fluorescence polarization titration, we determined how phosphorylation of S392 affects the affinity of all seven mammalian 14-3-3 proteins for the TASK-1 C-terminus – either when phosphorylated alone or in combination with phosphorylation of S393 (Table S1). […] Because all Kd values determined for TASK-1 pS392 and the doubly phosphorylated protein (at S392 and S393) were substantially higher than those measured for TASK-1 pS393 (Table S1), we conclude that phosphorylation of S392 cannot substitute for phosphorylated S393 in creating a high-affinity 14-3-3 binding site. On the contrary, our results are consistent with an inhibitory role for phosphorylation of S392 with respect to 14-3-3-mediated binding.
Interactions between 14-3-3 proteins and TASK-1 and TASK-3 C-terminal peptides and variants were investigated using a fluorescence polarization assay ([Moll et al., 2006]; [Muda et al., 2014]). Fluorescein-labeled peptides were purchased from Peps4Life Sciences (Heidelberg, Germany). All measurements were performed in buffer containing 20 mM MOPS, 150 mM NaCl, 0.005% (v/v) CHAPS pH 7.0, using a Fusion™ α-FP microtiter plate reader at room temperature in a 384-well microtiter plater (Optiplate 384, black; Packard, Meriden, CT). 14-3-3 proteins were serially diluted from 100 µM to 1 nM and incubated with 10 nM of fluorescently labeled peptide. The fluorescence polarization signal was detected for 2 s at an excitation wavelength of 485 nm with an emission fluorescence polarization filter wavelength of 535 nm and a photomultiplier voltage of 1100. Data were analyzed with GraphPad Prism 6.0 (GraphPad Software, San Diego, CA) by plotting the obtained fluorescence polarization signal in millipolarization units (mPol) against the logarithm of the 14-3-3 protein concentration. The data were then fitted using a monophasic fit.

[2] = biological target: TASK-3 pS373 C-terminal fluorescent peptide (last 15 amino acids) (human) (UniProt Q9NPC2); assay: fluorescence polarisation; 10 nM fluorescein-labelled peptide titrated with 14-3-3 protein (1 nM to 120 µM in the results, 100 µM to 1 nM in the methods); 20 mM MOPS, 150 mM NaCl, 0.005% (v/v) CHAPS pH 7.0; room temperature; monophasic fit
[3] = biological target: TASK-1 pS392 C-terminal fluorescent peptide (human) (UniProt O14649); assay: as above
[4] = biological target: GST-tagged TASK-3 C-terminal 15 residues fusion protein, phosphorylated with PKA catalytic subunit (human) (UniProt Q9NPC2); assay: SPR; GST fusion protein captured by an anti-GST antibody on an HC1000m chip, phosphorylated on the chip with PKA catalytic subunit; 14-3-3 proteins as analyte; 20°C; 150 mM NaCl, 20 mM HEPES, 0.005% (v/v) Tween 20, pH 7.5; equilibrium binding isotherms
[5] = biological target: T1, GST-tagged TASK-3 C-terminal 15 residues fusion protein, phosphorylated with PKA catalytic subunit (human, UniProt Q9NPC2 360-374); assay: SPR
T1 chain: {GST}-SFTDHQRLMKRRK[pS]V

[6] = biological target: TASK-1 pS393 C-terminal fluorescent peptide (last 15 amino acids) (human) (UniProt O14649); assay: fluorescence polarisation; 10 nM fluorescein-labelled peptide titrated with 14-3-3 protein (1 nM to 120 µM in the results, 100 µM to 1 nM in the methods); 20 mM MOPS, 150 mM NaCl, 0.005% (v/v) CHAPS pH 7.0; room temperature; monophasic fit
[7] = fluorescence polarization, best of the seven isoforms, read-out: Kd of the highest-affinity 14-3-3 interaction

Molecule: CSCC[C@H](NC(=O)[C@H](CC(C)C)NC(=O)CNC(=O)[C@H](CCCNC(=N)N)NC(=O)[C@H](Cc1ccccc1)NC(=O)[C@@H](NC(=O)[C@H](CO)NC(=O)[C@H](CC(C)C)NC(=O)[C@H](CO)NC(=O)[C@@H](N)CS)[C@@H](C)O)C(=O)N[C@@H](CCCCN)C(=O)N[C@@H](CCCNC(=N)N)C(=O)N[C@@H](CCCNC(=N)N)C(=O)N[C@@H](COP(=O)(O)O)C(=O)N[C@@H](CO)C(=O)N[C@H](C(=O)O)C(C)C [TASK-1 pS392] (H-CSLSTFRGLMKRR[pS]SV-OH)
- Kd ([1]; fluorescence polarization titration, all seven 14-3-3 proteins, read-out: Kd values across the 14-3-3 proteins (approximate, Table S1)): ~100 µM

Molecule: CSCC[C@H](NC(=O)[C@H](CC(C)C)NC(=O)CNC(=O)[C@H](CCCNC(=N)N)NC(=O)[C@H](Cc1ccccc1)NC(=O)[C@@H](NC(=O)[C@H](CO)NC(=O)[C@H](CC(C)C)NC(=O)[C@H](CO)NC(=O)[C@@H](N)CS)[C@@H](C)O)C(=O)N[C@@H](CCCCN)C(=O)N[C@@H](CCCNC(=N)N)C(=O)N[C@@H](CCCNC(=N)N)C(=O)N[C@@H](CO)C(=O)N[C@@H](COP(=O)(O)O)C(=O)N[C@H](C(=O)O)C(C)C [TASK-1 pS393] (H-CSLSTFRGLMKRRS[pS]V-OH; N-terminus assumed)
- fold lower affinity for 14-3-3 proteins than the TASK-3 C-terminus ([1]; fluorescence polarization, TASK-1 pS393 versus TASK-3 pS373): 10- to 100 fold
- Kd [1, 7]: ~10 µM

Molecule: CSCC[C@H](NC(=O)[C@H](CC(C)C)NC(=O)CNC(=O)[C@H](CCCNC(=N)N)NC(=O)[C@H](Cc1ccccc1)NC(=O)[C@@H](NC(=O)[C@H](CO)NC(=O)[C@H](CC(C)C)NC(=O)[C@H](CO)NC(=O)[C@@H](N)CS)[C@@H](C)O)C(=O)N[C@@H](CCCCN)C(=O)N[C@@H](CCCNC(=N)N)C(=O)N[C@@H](CCCNC(=N)N)C(=O)N[C@@H](COP(=O)(O)O)C(=O)N[C@@H](COP(=O)(O)O)C(=O)N[C@H](C(=O)O)C(C)C [doubly phosphorylated peptide] (H-CSLSTFRGLMKRR[pS][pS]V-OH; N-terminus assumed)
- Kd values across the 14-3-3 proteins (approximate, Table S1) ([1]; fluorescence polarization titration, all seven 14-3-3 proteins): high micromolar range

Molecule: 14-3-3σ (from UniProt P31947 1-248) (natural protein)
- Kd [2]: 3.6 µM
- Kd [3]: 100 µM
- Kd [4]: 0.742 µM

Molecule: CSCC[C@H](NC(=O)[C@H](CC(C)C)NC(=O)[C@H](CCCNC(=N)N)NC(=O)[C@H](CCC(N)=O)NC(=O)[C@H](Cc1c[nH]cn1)NC(=O)[C@H](CC(=O)O)NC(=O)[C@@H](NC(=O)[C@H](Cc1ccccc1)NC(=O)[C@H](CO)NC(=O)[C@@H](N)CS)[C@@H](C)O)C(=O)N[C@@H](CCCCN)C(=O)N[C@@H](CCCNC(=N)N)C(=O)N[C@@H](CCCNC(=N)N)C(=O)N[C@@H](CCCCN)C(=O)N[C@@H](COP(=O)(O)O)C(=O)N[C@H](C(=O)O)C(C)C [TASK-3 pS373] (H-CSFTDHQRLMKRRK[pS]V-OH; N-terminus assumed)
- Kd [1, 7]: ~0.1 µM

B1: 14-3-3τ (natural protein)
chain: MEKTELIQKAKLAEQAERYDDMATCMKAVTEQGAELSNEERNLLSVAYKNVVGGRRSAWRVISSIEQKTDTSDKKLQLIKDYREKVESELRSICTTVLELLDKYLIANATNPESKVFYLKMKGDYFRYLAEVACGDDRKQTIDNSQGAYQEAFDISKKEMQPTHPIRLGLALNFSVFYYEILNNPELACTLAKTAFDEAIAELDTLNEDSYKDSTLIMQLLRDNLTLWTSDSAGEECDAAEGAEN
- Kd [5]: 0.246 µM
- Kd [6]: 49.4 µM
- Kd [3]: 100 µM

B2: 14-3-3η (natural protein)
chain: MGDREQLLQRARLAEQAERYDDMASAMKAVTELNEPLSNEDRNLLSVAYKNVVGARRSSWRVISSIEQKTMADGNEKKLEKVKAYREKIEKELETVCNDVLSLLDKFLIKNCNDFQYESKVFYLKMKGDYYRYLAEVASGEKKNSVVEASEAAYKEAFEISKEQMQPTHPIRLGLALNFSVFYYEIQNAPEQACLLAKQAFDDAIAELDTLNEDSYKDSTLIMQLLRDNLTLWTSDQQDEEAGEGN
- Kd [5]: 0.115 µM
- Kd [2]: 0.11 µM
- Kd [3]: 100 µM

B3: 14-3-3ζ (natural protein)
chain: MDKNELVQKAKLAEQAERYDDMAACMKSVTEQGAELSNEERNLLSVAYKNVVGARRSSWRVVSSIEQKTEGAEKKQQMAREYREKIETELRDICNDVLSLLEKFLIPNASQAESKVFYLKMKGDYYRYLAEVAAGDDKKGIVDQSQQAYQEAFEISKKEMQPTHPIRLGLALNFSVFYYEILNSPEKACSLAKTAFDEAIAELDTLSEESYKDSTLIMQLLRDNLTLWTSDTQGDEAEAGEGGEN
- Kd [5]: 0.221 µM
- Kd [3]: 100 µM

— PMC4760375, “A dual phosphorylation switch controls 14-3-3-dependent cell surface expression of TASK-1” (Journal of Cell Science, 2016)
